Data on four molecules can be found in patent US20080267971A1 (published 2008).

T1: human Angiopoietin-2 (human, UniProt O15123 19-496)
T1 construct: Mostly bought recombinant protein (R&D Systems 623-AM/CF, 623-AN; biotinylated BT623) or supernatant of transfected 293F cells; also called Ang-2; rhAng-2
T1 sequence: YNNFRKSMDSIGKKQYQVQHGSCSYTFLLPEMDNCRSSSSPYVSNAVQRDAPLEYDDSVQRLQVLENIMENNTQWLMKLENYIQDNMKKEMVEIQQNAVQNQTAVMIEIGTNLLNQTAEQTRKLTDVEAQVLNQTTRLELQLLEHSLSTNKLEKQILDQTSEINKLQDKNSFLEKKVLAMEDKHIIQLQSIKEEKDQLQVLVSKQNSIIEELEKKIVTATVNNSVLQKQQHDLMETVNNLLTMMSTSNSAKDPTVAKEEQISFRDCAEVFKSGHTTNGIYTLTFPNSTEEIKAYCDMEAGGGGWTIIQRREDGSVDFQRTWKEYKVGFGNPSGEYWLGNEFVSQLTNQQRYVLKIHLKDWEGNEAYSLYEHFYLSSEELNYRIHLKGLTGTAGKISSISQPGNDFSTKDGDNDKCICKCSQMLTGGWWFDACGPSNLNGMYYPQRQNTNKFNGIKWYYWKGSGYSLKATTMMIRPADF

T2: Human Ang-1/2 BsmI chimeric molecule (human)
T2 chain: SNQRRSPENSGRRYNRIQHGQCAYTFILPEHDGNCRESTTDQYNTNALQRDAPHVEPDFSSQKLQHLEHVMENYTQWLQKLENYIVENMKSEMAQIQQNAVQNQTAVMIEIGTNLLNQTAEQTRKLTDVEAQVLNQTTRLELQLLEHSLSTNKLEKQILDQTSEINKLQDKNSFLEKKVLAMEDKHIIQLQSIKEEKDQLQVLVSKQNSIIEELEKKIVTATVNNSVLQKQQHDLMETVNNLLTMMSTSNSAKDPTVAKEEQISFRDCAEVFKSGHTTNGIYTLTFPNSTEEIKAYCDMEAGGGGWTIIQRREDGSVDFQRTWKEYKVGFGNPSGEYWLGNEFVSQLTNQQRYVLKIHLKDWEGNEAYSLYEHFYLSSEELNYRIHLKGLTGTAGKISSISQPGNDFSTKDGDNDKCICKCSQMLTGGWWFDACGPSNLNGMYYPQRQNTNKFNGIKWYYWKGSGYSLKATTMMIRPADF

T3: human Ang-2 V345M (human, UniProt O15123 19-496)
T3 sequence: T1 sequence with V326M

T4: human Ang-2 H375Q (human, UniProt O15123 19-496)
T4 sequence: T1 sequence with H356Q

T5: human Ang-2443 (human, UniProt O15123 19-496)
T5 construct: Splice variant missing amino acids 96-148; supernatant of transfected 293F cells
T5 sequence: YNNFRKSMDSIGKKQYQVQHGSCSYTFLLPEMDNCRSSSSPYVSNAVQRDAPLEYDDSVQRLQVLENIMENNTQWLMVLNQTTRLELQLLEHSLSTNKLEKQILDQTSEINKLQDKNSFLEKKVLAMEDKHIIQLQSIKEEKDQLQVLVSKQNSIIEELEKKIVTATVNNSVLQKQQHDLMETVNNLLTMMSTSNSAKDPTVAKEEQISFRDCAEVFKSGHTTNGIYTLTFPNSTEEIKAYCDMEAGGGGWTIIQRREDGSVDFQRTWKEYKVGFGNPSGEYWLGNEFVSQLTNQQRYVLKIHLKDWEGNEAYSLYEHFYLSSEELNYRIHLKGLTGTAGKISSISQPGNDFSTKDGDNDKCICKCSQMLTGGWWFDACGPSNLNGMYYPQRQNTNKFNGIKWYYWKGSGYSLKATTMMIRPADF

T6: mouse Angiopoietin-2 (mouse, UniProt O35608 19-496)
T6 construct: Used as conditioned medium of transfectants; also called mAng-2; mouse Ang-2
T6 sequence: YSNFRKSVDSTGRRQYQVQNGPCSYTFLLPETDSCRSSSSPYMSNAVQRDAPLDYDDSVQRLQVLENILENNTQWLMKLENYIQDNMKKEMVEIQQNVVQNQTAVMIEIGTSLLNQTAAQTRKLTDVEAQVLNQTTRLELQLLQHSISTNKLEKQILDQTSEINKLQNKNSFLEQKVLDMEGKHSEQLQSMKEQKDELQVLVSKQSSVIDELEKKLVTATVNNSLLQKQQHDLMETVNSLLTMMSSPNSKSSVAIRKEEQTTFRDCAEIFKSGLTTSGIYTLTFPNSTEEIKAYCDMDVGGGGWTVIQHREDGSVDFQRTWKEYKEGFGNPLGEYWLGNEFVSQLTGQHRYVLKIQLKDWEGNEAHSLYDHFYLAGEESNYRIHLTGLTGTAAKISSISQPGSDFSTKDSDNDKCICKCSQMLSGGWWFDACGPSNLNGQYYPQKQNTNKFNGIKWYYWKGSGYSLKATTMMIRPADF

B1: mAb 6.3.1 (antibody, V domains shown)
VH: QVQLVQSGAEVKKPGASVKVSCKASGYTFTGYFMHWVPQAPGQGLEWMGWINPNSGGTNYAQNFQGRVTMTRDTSISTAYMELSRLRSDDTPVYYCARDPWQNWNSYFDYWGQGTLVTVSS
VL: DIQMTQSPSSLSASVGDRVTITCRASQSIRSYLNWYQQKPGKAPKVLIYAASSLQSGVPSRFSGSGSGTDFTLTISSLQPEDFATYYCQQSYSTLCSFGQGTKLEIKR
notes: Human hybridoma IgG (XenoMouse); also called x6.3
B2: human Angiopoietin-1 (ligand)
chain: SNQRRSPENSGRRYNRIQHGQCAYTFILPEHDGNCRESTTDQYNTNALQRDAPHVEPDFSSQKLQHLEHVMENYTQWLQKLENYIVENMKSEMAQIQQNAVQNHTATMLEIGTSLLSQTAEQTRKLTDVETQVLNQTSRLEIQLLENSLSTYKLEKQLLQQTNEILKIHEKNSLLEHKILEMEGKHKEELDTLKEEKENLQGLVTRQTYIIQELEKQLNRATTNNSVLQKQQLELMDTVHNLVNLCTKEVLLKGGKREEEKPFRDCADVYQAGFNKSGIYTIYINNMPEPKKVFCNMDVNGGGWTVIQHREDGSLDFQRGWKEYKMGFGNPSGEYWLGNEFIFAITSQRQYMLRIELMDWEGNRAYSQYDRFHIGNEKQNYRLYLKGHTGTAGKQSSLILHGADFSTKDADNDNCMCKCALMLTGGWWFDACGPSNLNGMFYTAGQNHGKLNGIKWHYFKGPSYSLRSTTMMIRPLDF
notes: Bought recombinant protein (R&D Systems 293-AN-025/CF) or supernatant of transfected 293F cells; also called Ang-1; recombinant Ang-1
B3: mAb 5.41.1 (antibody, V domains shown)
VH: EVQLVESGGGLVQPGGSLRLSCAASGFTFSSYWMSWVRQAPGKGLEWVANIKEDGSEKYYVDSVKGRFTISRDNAKNSLYLQMNSLRAEDTAVFYCARDRSSGFFDYWGQGTLVTVSS
VL: EIVMTQSPATLSVSPGERATLSCRASQSVSSNLAWYQQKPGQAPRFLIYGASTRATGIPARFSGSGSGTEFTLTISSLQSEDFAVYYCQQYNHWWTFGQGTKVEIKR
notes: Human hybridoma IgG (XenoMouse); also called x5.41
B4: mAb 5.16.3 (antibody, V domains shown)
VH: QVQLVQSGAEVKKPGASVKVSCKASGYTFTGFYMYWVRQAPGQGLEWMGWINPNSSGTNHAQKFQGRVTMTRDTSISTAYMELSRLRSDDTAVYYCARDQDIATAGPFDYWGQGTLVTVSS
VL: B3 VL with F46L, Y49F, H93N, Q99R
notes: Human hybridoma IgG (XenoMouse); also called x5.16

Changes are numbered by the printed parent chain. Where only a bound is given, the exact number is not on record here.

The target of test [1] is T1, human Angiopoietin-2. The experiment in a line: Biacore; kd held constant (*). As for the experimental part: (§1) The label-free surface plasmon resonance (SPR), or Biacore, was utilized to measure the antibody affinity to the antigen. For this purpose, a high-density goat anti-human antibody surface over a CM5 Biacore chip was prepared using routine amine coupling. All the purified mAbs were diluted to approximately 8 μg/ml in HBS-P running buffer containing 100 μg/ml BSA and 10 mg/mL carboxymethyldextran. Each mAb was captured on a separate surface using a 42-second contact time, and a 5-minute wash for stabilization of the mAb baseline.
(§2) Data were fit globally to a 1:1 interaction model to determine the binding kinetics.

The target in test [2] is T1, human Angiopoietin-2. The experiment in a line: Biacore, mAb captured. The method, then:
as §1, §2
For orientation: In SPR one partner is held on a chip, and binding of the other changes the refractive index at the surface.

In the test “human Angiopoietin-1” the target is B2. In words: capture ELISA. The method, then: The binding of the top 27 human monoclonal antibodies was detected with a HRP-conjugated goat anti-human antibody, followed by colorimetric horseradish peroxidase substrate (Enhanced K-Blue TMB substrate Neogen Corporation). The absorbance of each well of the ELISA plates was measured at 450 nm on a microplate autoreader.

For test [3], the target named is T1, human Angiopoietin-2. In words: inhibition of rhAng-2 binding to its receptor.
Test [4] has as its target T2, Human Ang-1/2 BsmI chimeric molecule. In words: ELISA. On the technique in general: In an ELISA, binding on a coated surface is turned into a signal by an enzyme label.
A further test addresses T3, human Ang-2 V345M. The experiment in a line: ELISA.
In a further test the target is T4, human Ang-2 H375Q. In words: ELISA.
Another test deals with T5, human Ang-2443. The experiment in a line: ELISA.
For test [5], the target named is T7, recombinant human Tie2/Fc fusion protein (human, UniProt Q02763 23-745).
T7 construct: Bought fusion protein; also called hTie2/Fc; soluble Tie2/Fc
T7 sequence (Q02763 23-745 limits assumed): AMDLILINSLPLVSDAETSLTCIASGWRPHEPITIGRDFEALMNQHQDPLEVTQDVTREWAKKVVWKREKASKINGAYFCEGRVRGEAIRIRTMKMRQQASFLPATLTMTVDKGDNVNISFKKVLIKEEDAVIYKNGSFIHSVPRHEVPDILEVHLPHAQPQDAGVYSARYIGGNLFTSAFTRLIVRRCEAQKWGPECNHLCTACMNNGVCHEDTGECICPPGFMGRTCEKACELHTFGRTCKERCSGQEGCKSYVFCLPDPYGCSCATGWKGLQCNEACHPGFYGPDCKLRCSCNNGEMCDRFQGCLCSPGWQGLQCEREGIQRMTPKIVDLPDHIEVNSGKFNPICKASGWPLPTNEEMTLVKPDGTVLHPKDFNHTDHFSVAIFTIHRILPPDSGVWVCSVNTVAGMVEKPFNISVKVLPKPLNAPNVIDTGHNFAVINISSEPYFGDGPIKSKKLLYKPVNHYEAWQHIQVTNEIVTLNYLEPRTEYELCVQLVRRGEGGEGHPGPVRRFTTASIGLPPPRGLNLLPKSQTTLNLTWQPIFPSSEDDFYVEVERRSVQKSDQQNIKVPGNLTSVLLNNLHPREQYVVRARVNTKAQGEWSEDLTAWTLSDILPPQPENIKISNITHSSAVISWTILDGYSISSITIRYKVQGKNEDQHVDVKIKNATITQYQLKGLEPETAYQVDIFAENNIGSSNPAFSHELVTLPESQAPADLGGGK
The experiment in a line: FACS competition: binding of His-tagged recombinant human Ang-1 to Tie2 on HEK293F/Tie2 transfectants, soluble Tie2/Fc titrated, n = 3. As for the experimental part:
Cell suspension of 4 million cells/mL in FACS Buffer were prepared, and then aliquoted to a 96-well polypropylene plate with 50 ul per well. […] Cells were washed by centrifuging the plate at 1,200 rpm for 5 minutes, removing the supernatant by aspirating, and resuspending the cells with 200 ul per well of FACS Buffer. Washing procedures were repeated twice. The cells were then suspended with 100 ul of mouse Anti-6×-Histidine antibody diluted to 2 ug/ml in FACS Buffer, and incubated at room temperature for 30 minutes. After washing, the cells were suspended in 100 ul of PE-conjugated goat anti-mouse-IgG, which was diluted 1:100 in FACS Buffer, for incubation at room temperature for 30 minutes. The volume of the samples were brought to 300 ul with FACS Buffer, and measured with FACS Calibur.

In the next test the target is T6, mouse Angiopoietin-2. In words: ELISA, recombinant mouse Ang-2.

B1 yielded a koff with human Angiopoietin-2 [1] not above 1e-05 s⁻¹. Further, the Kd in the test with human Angiopoietin-2 [2] is not above 0.073 nM. In the test with human Angiopoietin-2 [2], this molecule came in with a kon of 140000 M⁻¹ s⁻¹. The binding result in the test with human Angiopoietin-1 is recorded as “no binding”. The “OD650 in inhibition assay” value with human Angiopoietin-2 [3] was 0.0617 OD650. For the same molecule, the “% of binding to human Ang-2” value (in test [4]; in the test with human Ang-2 V345M; in the test with human Ang-2 H375Q; with human Ang-2443) was 100% throughout.

Take B2: the binding result in [5] is reported as “binds”.

Consider B3, for which the binding result with mouse Angiopoietin-2 and with human Angiopoietin-1 was “no binding” throughout.

In the case of B4, the binding result with mouse Angiopoietin-2 and in the test with human Angiopoietin-1 was “no binding” throughout.

What is called koff is the rate constant with which the complex falls apart. The Kd is the equilibrium constant for the complex coming apart. A lower Kd goes with higher affinity. The kon is the rate constant with which the complex forms. Lower therefore signals slow association.
